{"source": "the DeepSol protein solubility set"}
{"experiment": "soluble on expression in E. coli; label from the status in PepcDB or PDB records"}
{"sequence": "MAHHHHHHMPVRRYGGRYNSSSPGVSNALNPSRTAGWPLSPSPATGSKPASTHHDPVPQEAYYVKDEADARHQQQAPLREPSVEVEVEIIDDEPPRGSQKPLSVAPCTANANNSSGGSKCNAITASRYTFYTNAYQKSVYEALRSLRPLPELQEPRRVKEYAETSLKDSLYRIVEAHDVIMVAGAFFGDEGKGKTVDAVARHPLCTCIARVNSGENAGHTVYDKAGRKFVFNLAPSGLLLPGKRNYIGPECVMDPVSFMEKEVIQLIDAGIDYRDRLFIGNVCIVTPYHKLLDLLGSAANSSTLKGMAPVHGSKVMKRGIRLDHIFNDDETLRKRLEKDMDTYFGLLKVKNLSDADVVRLCREENSDGVVRVPDYVIAFAQAEDKVEFLVKLYRDRVRHNPGFPARCDVTYELHAALLRGEKVLLEGPQSYWLSNARTKFWESTTSADTTAAGLLAASQLNFQKFKSVVLNVHKAPGSSRVGIGACPSSFVPQDYFSAQNIKTLRDLPSATCAHFEAVQRTLFRDGFPHSNDKARHNGIMAPVEYSDETGTYNIGVAMAIASAQHHGECGAVTKKPRVCGFFDCVLHHEVNNIQGPYLTISALDRGDEYDKVGVTIAYVYYSPEGKQVDVNGHVYKNGDIIRAGDPVPSEPALYHCHPIVKLIDGWRDNPIAAAKRRRNAPLPRGVCELLSAIEYFTNCKILSIGNGPNGDDIIYLRQ", "soluble on expression in E. coli": "not soluble"}
{"sequence": "MGSDKIHHHHHHMDIKNKIKSIFLPEKNDYLDDEEFEYDIENNEEDLKEDNKVHLNDLSRVKYDYRELKDIENQTEEMCLLAVKQDGTIIEFVKDKTYKVCMEAVKQTYKSLKYITNQNEDICIEAVKQNYRALYYINNKTENVLIEAIKNASTYDVMEVFKFVEEQTEDVCLAFIERASKNDVAEILKGIKEQTPAICLEAVKKDGKSLAYVKEQSNSICLEAVKENYSALSCVKEQTEEICIEAVKQNDFALYYVNEQTEKICMEAVKRSYMALQYVNKQTEEICLEAVRIDGRALQYVKEQTEEICLESVRQNGKVLQYVKKQTENICIEAVRGSFEELEIKEILSYVKIPTERIFVEAVKQNGKILKYVENQTELICLEAVRENYNALAYVKEQTEKICLEAVNQSYEALKYVKEQTEEVCLKAVKQDYRMLKYVNNQTEKICLEAVKQNYRALEFVDNQTEKVCLEAVKQNRKALQYVKQKQS", "soluble on expression in E. coli": "not soluble"}
{"sequence": "MSNTSSSHNTAFTPSSPAERYAQALASGQFMPDEAQAQAVQELERVWQELLSRYKASKKAFRRFRRQTSPKGVYMWGGVGRGKTWLMDQFYDSIPFRRKTRMHFHHFMQHVHRELNKLSGQRNPLDLVADQIYKDAVIICFDEFFVSNVTDAMILSDLFQKLFNRGVTLVATSNIAPDGLYKNGIHRDRFLPTIELVQKNCTILNVDAGVDYRLRVLKQAQLFKHPLTDDAKIWMSQRFSAITRSQIVSQQPITINNRVVETLGHTEDVLWCEFSELCLKPRSPADFIEIANIYNTVLVSNVPHLTDYLSEGTRRFIYLVDEFYDRGVKLLLTSQDSIIEIYEGEKLAFEIERTRSRLLEMQSDEYLHSEHRHINSENNSLEHHHHHH", "soluble on expression in E. coli": "not soluble"}
{"sequence": "MDPVIKLVAHAQEMSMTIPRRQACMVYGKLNVTLKKGDVQEERDKRVTDGYVHIPEDMPQGRFDFGFTREDADVNIGTGQSTYELALDTAARRITGQVLFEQDIIAPGFGDWRPLIDFSCGDLVGVRIWGKELVLPVTSITRETTGWRAHVGGQLINDRRKIISENRKILADIESERRER", "soluble on expression in E. coli": "not soluble"}
{"sequence": "GPGSMSAETLACTYAALMLSDAGLPTSAENIAAAVKAAGVEMRPTLPIIFARFLEKKSVETLMAAAAAQAPTAASAPSPAAGAASAAAAGGKVEDKKKDEPEEEGDDDMGFGLFD", "soluble on expression in E. coli": "soluble"}
{"sequence": "MDWFGVDAGTLREGDRADFVVIDPNCLNSDVDAYHEETVPFYGGLSRMVNRNDDAVVATAVNGTVVFGKGEFRDGYGLEHHHHHH", "soluble on expression in E. coli": "not soluble"}
{"sequence": "MKAVTFPVPWEYLKRIFEGKNVFVKPATLRVEEGMKVIFYASRENQGWHGEAEVERVEYYTSVEEIIKKYRDKLFLTPEELRRYERDRARWDSGRRKRPWMVLVLRNIEKYPRVVKPKKFIVVSGRYVDEKEYEEIRRSTSLEHHHHHH", "soluble on expression in E. coli": "soluble"}
{"sequence": "MSLKKITGDDVLIPLETPESMHKEYIQNYLNLTRNTGNLMLFAGDQKIEHLNEDFYGKDISKDDADPEHLFKIAENSKIGGFAVQFGLLSRYGRDHKDINYIVKLNSKTNLVDTNQKDPLSRALLDINDILEFKKNSGINIVGVGYTIYLGSEYESEMLSEASKIIYEAHKGGLVVILWIYPRGKAVKDEKDSELISGATGVAACLGADFVKVNYPKSENPAESFKEAVMAAGRTKVVCAGGSSTDIESFLKQLYEQIHISGASGNATGRNIHQKSLSDAVSMCNAIYAITIDGKTVSEALNIYNERKSEGHHHHHH", "soluble on expression in E. coli": "soluble"}
{"sequence": "MILNILRLPHADEPTTSQSVQDYPLVHFSPRRHQKFRTIISVGDSDVIKDSSLTDEELYNIIHASPIARKSSTVSSTDSGYLGSSGASSSCVRSREGSTVSSTITVERTRRGGSTASSEPDSVADSEGAGSYSSFSSIASTASRMLGRAADCLVLMTKRNGWSGDAGSPSDEKGSSLDAQSWTTAIQSALMPVTPQSSVVGGKRIDKLKVPTEGKTRPPY", "soluble on expression in E. coli": "not soluble"}
{"sequence": "GSLATCIGEKIEDFKVGNLLGKGSFAGVYRAESIHTGLEVAIKMIDKKAMYKAGMVQRVQNEVKIHCQLKHPSILELYNYFEDSNYVYLVLEMCHNGEMNRYLKNRVKPFSENEARHFMHQIITGMLYLHSHGILHRDLTLSNLLLTRNMNIKIADFGLATQLKMPHEKHYTLCGTPNYISPEIATRSAHGLESDVWSLGCMFYTLLIGRPPFDTDTVKNTLNKVVLADYEMPSFLSIEAKDLIHQLLRRNPADRLSLSSVLDHPFMSRNSSTKSKDLGTVEDSIDSGHATISTAITASSSTSISGSLFDKRRLLIGQPLPNKMTVFPKEG", "soluble on expression in E. coli": "soluble"}
{"sequence": "AHHHHHHGSAEMVIPYPHLQRILEKTCELAVTKPMAERMMEIVERKLADLFEVAYENATAENSETIKMRHIPITKGFRSSMNLFRAVIEDENIKIEPILDYVLRKIPADKPLEEEVINELPIITGTLFVLIGRVIKALHPEVRNVYPEHIEEAEKVLDYTL", "soluble on expression in E. coli": "soluble"}
{"sequence": "MDNKNFQSKTGFNLENTYLTLPNIFFSEQNPKGSKNPKLIKFNTSLAEELGLNEEVLNSDFGLNIFAGNETFPGIVPIAQAYAGHQFGHFTMLGDGRALLLGEHVTKDCKRYDVQLKGSGRTIYSRGGDGKAALAPMLREYIISEGMHGLGIPTTRSLAVVSTGEEVLRERFEQGAILTRIASSHIRVGTFAYAAQWGTLEDLKSLADYTIKRHFPNIADNENKYILFLEEVINRQAELIVKWQSVGFIHGVMNTDNMVISGETIDYGPCAFMDTYDTNTVFSSIDYAGRYAYGNQPNMALWNLARFSEALLPLLNPNLDEAVNIAKKSISNFSKLYKKYWFNKMRTKLGLFTEKENDELLIEGLLSTMQKYEADFTNTFVSLTLNKFEDEKVFSSDEFKTWYALWQNRLKEENRPQEEVRNLMMNNNPYIIPRNHLVEEALKNAEKGDFTFMDNLLEALKNPYSYSKDLEKYTKLPEKSDTPYVTYCGTLEHHHHHH", "soluble on expression in E. coli": "not soluble"}
{"sequence": "MARDGAVYACQSCGAVQTKWSGQCSACQSWNTLVEEVSAKPPGALSATKATRVRGLQFTGLESETAPPPRILTGVDEFDRVCGGGVVPGSALLIGGDPGVGKSTLLLQVCASAAARGVSCAYISGEEAVEQIRGRADRMGLAKANVSLAAETALRDILDGLKRDNFDLVVIDSIQTMWSDAHEAGPGTVTQVRACATELVRLAKKKGVAILLVGHVTKDGQIAGPRVVEHLVDAVLSFEGERGYPFRILRGAKNRFGATDEIGVFEMGDVGLREVKNPSALFLNEGGERAAGAAVFAGIEGSRPVLVEFQALVAPSAYGTPRRAVVGWDSGRLAMVLAVLEARCGLGFGDKDVYLNVAGGLRITEPAADLAAAAALASSALDVALPQDCVVFGELSLSGEVRPVSRMETRLKEAAKLGFGRALGPLAGLPEGGGALPVAGVARLTDAVRRIGDEIWTSLT", "soluble on expression in E. coli": "soluble"}
{"sequence": "MKKSILFICLLTLASTLAKVQAQEERNHGIIWSSLHGLEYGVKAGFNIGGTSPLPLPQEIRAITGYSPNVCFAIEGNVTKWFDKDKKWGMILGLRLENKGMETKARVKNYGMEIIGDGGEHLAGNWTGKVKTKFKASYFSIPILAAYQLSPRVRLSAGPYVSFMTSGDFNGYVSDGYLRKGDPTGTKVEFKDGNTAPYDFSKDLRSFQWGMQAGAEWKAFKHLTVHADLEWGLNDIFKKEFKTITFNMYPIYLNAGFGYAF", "soluble on expression in E. coli": "not soluble"}
{"sequence": "MSSSAAKYDVFQAIADPTRREVIRLLSDKELPISKITDHFPMSRTAVVKHLHILSEANLVSGRKSGREKIYRLHPEPLEELQQWLSYYERFWDNKLSMLKHIVENEE", "soluble on expression in E. coli": "not soluble"}
{"sequence": "MLRHNVPIRRDLDKIACDHGFDFHVIDNEIYWDESRAYRFTLRQIEEQIEKPTAELHQMCLEIVERAVRDEQSMQQLAIPPLYWDVIAESWRSRDPSLYGRMDFVWCGKDPVKLLEYNADTPTSLYESSYFQWLWLEDARRSGAIPRDADQYNAIQERLIARFSELYSREPLYFCCCEDTDEDRTTVLYLQDCAQQAGQETRFIYIEELGLGVGGVLTDLDDNVIRRAFKLYPLEWMMRDDNGPLLRKRREQWIEPLWKSILSNKGLLPLLWRFFPGHPNLLPAWFEGEKSLAAPGESSVRKPIYSREGGNVTIFDERQNVIDHADGDYADEPMIYQAFQPLPRFGDSYTLIGSWIIDDEASGMGIREDNTLITKDTSRFVPHYIAG", "soluble on expression in E. coli": "not soluble"}
{"sequence": "MHRSTFIRTSGTSSRTLTARYRSQYTGLLVARVLFSTSTTRAQGGNPRSPLQIFRDTFKKEWEKSQELQENIKTLQDASGKLGESEAYKKAREAYLKAQRGSTIVGKTLKKTGETMEHIATKAWESELGKNTRKAAAATAKKLDESFEPVRQTKIYKEVSEVIDDGESSRYGGFITKEQRRLKRERDLASGKRHRAVKSNEDAGTAVVATNIESKESFGKKVEDFKEKTVVGRSIQSLKNKLWDESENPLIVVMRKITNKVGGFFAETESSRVYSQFKLMDPTFSNESFTRHLREYIVPEILEAYVKGDVKVLKKWFSEAPFNVYAAQQKIFKEQDVYADGRILDIRGVEIVSAKLLAPQDIPVLVVGCRAQEINLYRKKKTGEIAAGDEANILMSSYAMVFTRDPEQIDDDETEGWKILEFVRGGSRQFT", "soluble on expression in E. coli": "not soluble"}
{"sequence": "GMLHYTKEDLLELGAEITTREIYQQPDVWREAFEFYQAKREEIAAFLQEIADKHDYIKVILTGAGTSAYVGDTLLPYFKEVYDERKWNFNAIATTDIVANPATYLKKDVATVLVSFARSGNSPESLATVDLAKSLVDELYQVTITCAADGKLALQAHGDDRNLLLLQPAVSNDAGFAMTSSFTSMMLTTLLVFDPTEFAVKSERFEVVSSLARKVLDKAEDVKELVDLDFNRVIYLGAGPFFGLAHEAQLKILELTAGQVATMYESPVGFRHGPKSLINDNTVVLVFGTTTDYTRKYDLDLVREVAGDQIARRVVLLSDQAFGLENVKEVALGCGGVLNDIYRVFPYIVYAQLFALLTSLKVENKPDTPSPTGTVNRVVQGVIIHEYQK", "soluble on expression in E. coli": "soluble"}
{"sequence": "SLQLESLISAAPALSQQAVDQEWSYMDFLEHLLHEEKLARHQRKQAMYTRMAAFPAVKTFEEYDFTFATGAPQKQLQSLRSLSFIERNENIVLLGPSGVGKTHLAIAMGYEAVRAGIKVRFTTAADLLLQLSTEQRQGRYKTTLQRGVMAPRLLIIDEIGYLPFSQEEAKLFFQVIAKRYEKSAMILTSNLPFGQWDQTFAGDAALTSAMLDRILHHSHVVQIKGESYRLRQKRKAGVIAEANP", "soluble on expression in E. coli": "not soluble"}
